From patent US8889408B2, “Factor taking part in transcription control” (Sony Corporation, priority 2002, dated 2014) come the findings set out here.

In one data set the test system is retinoic acid receptor. In words: RAR reporter CAT analysis in HepG2 cells. Format: cell-based. The protocol: Since it is shown in the above example that HDART is able to interact with Skip, the functional role of HDART on the transcription route ascribed to a nuclear receptor was analyzed. First, the effect of HDART on the transcription regulation by retinoic acid receptor was analyzed. For this purpose, the CAT analysis was made using a RAR (retinoid acid receptor) reporter plasmid incorporating a thymidine kinase minimum promoter (pTREpal-tata) and CAT gene therein downstream of a retinoid response element.
More particularly, pcDNA3-HDART, capable of steadily expressing HDART, and, at the same time, RAR reporter plasmid, were transfected into HepG2 cells by use of Effectene kit (QIAGEN™). It is to be noted that the pcDNA3-HDART expression vector was introduced in different amounts of 0, 0.5 and 1.0 μg, and the amount of DNA in the respective transfections was equalized at 1 μg by adding the appropriate amount of a vacant vector of pcDNA. After the transfection, growth was made in the presence (10^−8 M) or absence of ATRA and the CAT activity was measured. The results of the measurement (FIG. 6) are indicated in terms of values corrected on the basis of the CAT activity obtained after introduction of 1.0 μg of a vacant vector in the absence of ATRA. In addition, the average of the results of three experiments and a standard deviation in terms of an error bar are also shown.
(§1) Next, the influence of the overexpression of N4TPR on the transcription from RAR or a glucocorticoid responsive promoter was checked. It will be noted that this test was made in the same manner as in the reporter analysis set out in Example 4, but using GFP-N4TPR expression vector (0, 0.3 and 0.5 μg).

For a further data set, the system named is MM-1-19-P cells. In words: ATRA-induced differentiation of MM-1-19-P rhabdomyosarcoma cells. Format: cell-based, human. An excerpt:
It is known that ATRA (all-trans retinoic acid) is an important inducer for tumor cell differentiation (20-22). The human rhabdomyosarcoma cell line MM-1-19-P is constituted mainly of small polygonal cells, which when provided with retinoic acid, ultimately differentiate into myotubular cytomegalic cells. In order to clarify the physiological role of HDART in the reaction ascribed to nuclear hormone receptors, the influence of the expression with HDART on the differentiation of MM-1-19-P caused by ATRA was analyzed.
MM-1-19-P cells were plated in a […] Petri dish, followed by co-transfection of the cells with 0.4 μg of pGFP vector and 2 μg of pcDNA3 (vacant vector) or pcDMA3-HDART (HDART expression vector). 24 hours after the transfection, the medium was changed with an ATRA-containing (2 μM) or ATRA-free fresh one. […] All experiments were repeated four times, and the number of cells assessed as positive for GFP was counted. It will be noted that in FIG. 12, the standard microphotographs of green fluorescence of GFP are shown in panels of FIGS. 12A, 12B, 12C and 12D, and the phase differential microphotographs are shown in panels of FIGS. 12E and 12F, respectively. In the figure, 12A indicates ATRA non-treated, vacant vector-introduced cells, 12B indicates ATRA treated, vacant vector-introduced cells, 12C indicates ATRA-non-treated, HDART expression vector-introduced cells, 12D indicates ATRA-treated, HDART expression vector-introduced cells, 12E indicates cells under the same conditions as in 12C above, and 12F indicates cells under the same conditions as in 12D above. In addition, the black arrow in the panel of FIG. 12F indicates undifferentiated GFP positive cells, and white arrow indicates differentiated cells.

The next data set has as its system HDAC. In words: CAT reporter analysis with HDART in the presence of HDAC inhibitors. Format: cell-based. The conditions noted are these: pcDNA3-HDART 1 μg. The protocol: In this example, however, a given amount of pcDNA3-HDART expression vector (1 μg) (“HDART+” in FIGS. 10) and 100 nM of TSA or […] of sodium butyrate was added to along with a ligand (ATRA or dexamethasone).

Data set [1] has as its system glucocorticoid receptor (GR). Put plainly: GR reporter CAT analysis in GR positive Hela cells. Format: cell-based. The protocol:
Furthermore, the action of HDART on the transcription regulation by glucocorticoid receptor (GR) was analyzed by use of GR reporter plasmid in GR positive Hela cells. The transcription activity of a glucocorticoid response promoter was carried out in the same manner as in the experiment for the retinoic acid receptor except for the use of Hela cells and 10^−8 M of dexamethasone. The results of the measurement are shown in the same manner as shown above.
as §1

The target in data set [2] is T1, Skip (Homo sapiens, UniProt Q13573).
T1 sequence (Q13573 1-536): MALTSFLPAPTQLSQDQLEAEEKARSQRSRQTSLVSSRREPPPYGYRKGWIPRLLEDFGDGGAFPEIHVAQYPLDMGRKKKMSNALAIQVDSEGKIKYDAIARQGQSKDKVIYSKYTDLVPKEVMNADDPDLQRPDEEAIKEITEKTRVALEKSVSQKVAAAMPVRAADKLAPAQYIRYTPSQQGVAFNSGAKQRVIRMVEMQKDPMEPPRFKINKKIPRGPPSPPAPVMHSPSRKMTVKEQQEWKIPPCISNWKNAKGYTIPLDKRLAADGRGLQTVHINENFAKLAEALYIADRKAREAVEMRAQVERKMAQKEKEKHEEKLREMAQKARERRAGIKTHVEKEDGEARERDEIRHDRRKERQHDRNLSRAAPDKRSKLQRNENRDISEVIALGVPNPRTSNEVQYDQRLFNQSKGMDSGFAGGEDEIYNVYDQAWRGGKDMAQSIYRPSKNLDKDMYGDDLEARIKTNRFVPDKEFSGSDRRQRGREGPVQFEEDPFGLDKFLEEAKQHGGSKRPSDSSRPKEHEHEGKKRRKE
In words: Immunoprecipitation: N4TPR inhibition of endogenous HDART-Skip interaction in 293 cells. Format: binding. Also on record: expressed in transfected cells; host or cells: 293 cells. Conditions: GFP-N4TPR expressed versus GFP alone. The text has this: RAR and TR inhibit the genetic activity in the absence of a ligand in vivo (Baniahmad, A., Kohne, A. C., and Renkawitz, R. (1992) Embo J 11(3), 1015-23) and in vitro (Fondell, J. D., Roy, A. L., and Roeder, R. G. (1993) Genes Dev 7(7B), 1400-10). From this, this is called active repression. Skip interacts with NHR independently of ligand (MacDonald, P. N., Baudino, T. A., Toumaru, H., Dowd, D. R., and Zhang, C. (2001) Steroids 66 (3-5), 171-6). […] In order to clarify these possibilities, a dominant negative line of HDART is overexpressed to check the influence on the transcription ascribed to RAR. As shown in Example 2, the four TRPs (N4TPR) at the N terminus of HDART are in the Skip binding region, so that it is hypothesized that the expression of this region inhibits the interaction between the endogenous HDART and Skip, it is inhibiting the natural function of HDART and functioning as a dominant negative. In this sense, the N4TPR was used as a candidate for dominant negative in this example.
Flag-Skip and N4TPR tagged with GFP or GFP were transfected into 293 cells. […] The expression of Flag-Skip was detected using an anti-Flag antibody, the expression of GFP and GFP-N4TPR detected using an anti-GFP antibody, and the expression of the internal HDART detected using an anti-HDART antibody, respectively (FIG. 11A).

Data set [3] deals with T1, Skip. In words: Yeast two-hybrid analysis (β-galactosidase) of HDART-Skip interaction. Format: binding. Conditions: Gal4DBD-HDART and deletion mutants with Gal4AD-Skip; β-galactosidase activity. Also on record: expressed in transfected cells; host or cells: Saccharomyces cerevisiae Y190. An excerpt:
In order to isolate a protein that binds to this HDART, a yeast two-hybrid system was used. More particularly, a yeast MATCHMAKER two-hybrid analysis kit (Clontech) was used for the isolation. The ORF full length of HDART was inserted so that it and the Gal4 DNA binding domain reading frame were aligned in the same frame with each other within pAS-1 vector (Clontech). This bait plasmid was transformed into Saccharomyces cerevisiae Y190 along with pACT2 prey plasmid whose HeLa cDNA (Clontech) had been sub-cloned. The screening for clones into which both plasmids were introduced was carried out according to the kit protocol. […]
For mapping of regions on the Skip taking part in the interaction with HDART, a series of deletion mutations where various regions on Skip (N-terminus region (codon 1-220), nuclear hormone binding region (NHR binding, codon 221-388), and tran-activation region (TA, codon 438-536) were deleted, and the interaction between HDART and mutated Skip was analyzed according to the yeast two-hybrid analysis using Gal4DBD-HDART as set forth in Example 2. The results of the analysis are shown in FIG. 5A. The sign “+” indicated at the right of FIG. 5A indicates the observation of the interaction by the filter lift analysis of β-galactosidase activity, and the number of “+” indicates the relative intensity of the interaction. […]

The mark [4] stands for this setting: absence of a ligand, GFP-N4TPR expression vector 0.5 μg (highest expression level).
Where [5] appears, read: absence of ligand, GFP-N4TPR expression vector 0.3 μg.

On to `CC1=C(/C=C/C(C)=C/C=C/C(C)=C/C(=O)O)C(C)(C)CCC1` [ATRA, all-trans retinoic acid, reference compound], for which the CAT activity entry with retinoic acid receptor (HepG2 cells receiving vacant vector (pcDNA), presence of ATRA 10^−8 M versus absence) is listed as “increased five-fold”. Further, the “number of GFP positive cells (cytotoxic effect)” value in the data set on MM-1-19-P cells (cells treated with the vacant vector and ATRA 2 μM) is “less than 30%”. In the data set with MM-1-19-P cells (vacant vector-introduced cells, ATRA 2 μM, 48 hours), the “morphological differentiation into muscle tissue (myotubular cytomegalic cells)” value is “differentiated into muscle tissue”.

On to `CCCC(=O)[O-].[Na+]` [sodium butyrate], for which, in the data set on HDAC (1 mA of sodium butyrate added with ligand (ATRA or dexamethasone)), the “expression repression by HDART” value is listed as “The same results were also observed”.

With `CC(/C=C/C(=O)NO)=C\[C@@H](C)C(=O)c1ccc(N(C)C)cc1` [triconstatin A, tricostatin A], the “expression repression by HDART” value with HDAC (100 nM TSA added with ligand (ATRA or dexamethasone)) is reported as “fully neutralized”.

B1: N4TPR: dominant negative peptide of HDART: four TPRs at the N terminus, amino acids 1 to 179 of SEQ ID NO: 2 (protein, listed as Homo sapiens)
chain: MVVMARLSRPERPDLVFEEEDLPYEEEIMRNQFSVKCWLRYIEFKQGAPKPRLNQLYERALKLLPCSYKLWYRYLKARRAQVKHRCVTDPAYEDVNNCHERAFVFMHKMPRLWLDYCQFLMDQGRVTHTRRTFDRALRALPITQHSRIWPLYLRFLRSHPLPETAVRGYRRFLKLSPES
For the molecule B1, the “transcription activation capability for the retinoic acid receptor compared with ATRA” value in the data set on retinoic acid receptor (N4TPR versus ATRA) is “higher transcription activation capability than ATRA”. The “transcription activity from the RAR responsive promoter” value in the data set with retinoic acid receptor (setting [4]) is reported as “about 20 times”; in the data set on retinoic acid receptor (setting [5]) it was “increased up to the amount (gray column) of transcription activity induced by the presence of ligand”. Further, the “transcription activity from the glucocorticoid responsive promoter” value is “about 20 times” in data set [1] (setting [4]) and “increased up to the amount (gray column) of transcription activity induced by the presence of ligand” in data set [1] (setting [5]). The “amount of HDART co-precipitated with Skip” value with Skip [2] was “more reduced amount”. For the same molecule, the “interaction with Skip” value with Skip [3] is listed as “ensures the interaction with Skip to a full extent”.
